Test results: the nanobody polyreactivity screen of Harvey et al. (2022)

test: yeast display, Sf9 membrane polyspecificity reagent, FACS + sequencing; frameworks hold sequencing errors
Outline: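 A synthetic nanobody library was expressed on Saccharomyces cerevisiae BJ5465 by galactose induction for 36–48 hours. The library was stained for 1 hour at 4 °C with 10% biotinylated, detergent-solubilized Sf9 membrane reagent and enriched with streptavidin microbeads before FACS. Low and high (top ~1%) gates were set on anti-HA fluorescence for expression and streptavidin fluorescence for reagent binding, and each polyreactivity label reflects the gate of origin.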

Question: Which “polyreactivity (PSR sort gate)” value does the source give for “QVQLVESVGGIVQAGGSLRLSCAASGRTFYVYAMGWYRQARGKERELVASIRWRGSTYYADSVKGRFTISRDNAKNTVYLKMNSLKPEDTAVYYCAARYPYELGFDYWGQGTQVTVSS” here?
Answer: low polyreactivity

Question: For “QVQLVESGGGLVQAGGSLRLSCAASGIIFFKYGMGWYRQAPGKERELVAAITSGGSTYYADSVKGRFTISRDNAKNTVYLQMNSLKPEDTAVYYCNAQRYWRKVWEYESWGQGTQVTVSS”, which “polyreactivity (PSR sort gate)” value is on record?
Answer: low polyreactivity

Question: With “QVQLVESGGGLVQAGGSLRLICAASGLILKYYAMGWYRQAPGKEREFVAAITRRGGITYYADSVKGRFTISRDNAKNTVYLQMNSLKPEDTAVYYCAADPKLGSLAYWRYSYPLYDYWGQGTQVTVSS” as the sequence, how does the “polyreactivity (PSR sort gate)” value read?
Answer: low polyreactivity

Question: For “QVQLVESGGGLVQAGGSLRLSCAASGFIFRRNAMGWYRQAPGKERELVATIRASGGRTYYADSVKGRFTISRDNAKNTVYLQMNSLKPEDTAVYYCNKRGGYYGSPNYDYWGQGTQVTVSS”, which “polyreactivity (PSR sort gate)” value is on record?
Answer: high polyreactivity

Question: For “QVQLVESGGGLVQAGGSLRLSCAASGRIFRYNAMGWYRQAPGKERELVAAISSGGSTNYADSVKGRFTTSRDNAKNTVYLQMNSLKPEDTAVYYCNAESVHRYPGWGYDYWGQGTQVTVSS”, which “polyreactivity (PSR sort gate)” value is on record?
Answer: low polyreactivity

Question: Which “polyreactivity (PSR sort gate)” value does the source give for “QVQLQESGDGLVQAGGSLRLSSAASGTIFSDYGMGGYRQAPGKERELLAGISDGCNTNYTDSVKGRFTISRDNAHRVSADEQPETGGYRGVLLGGSERWLIFYVYWGQGTQVTVSC” here?
Answer: high polyreactivity

Question: Which “polyreactivity (PSR sort gate)” value does the source give for “QVQLVESGRGLVQAGGSLRLSCAASGITFNFYAKGWYRKAPGKERELVAAITQSGGSTYYADSVKGRFTISRDNAKNTVYLQMISLKPEDTAVYYWAAARTGHMYDLGQGTQVTVSS” here?
Answer: high polyreactivity

Question: For “QVQLVESGGGLVQAGGSLRLSCDASGSILWLNAMGWYRQAPGKERELVADITRGGSTYYADSVKGRFTISRDNAKNTVYLQMNSLKPEDTAVYYCAARLYGGYDWGQGTQVTVSS”, which “polyreactivity (PSR sort gate)” value is on record?
Answer: high polyreactivity

Question: With “QVQLVESGGGLVQGGGSLRLSCAASGRTFYGYAMGWYRQAPGKERELVAAITRSGGSTYYADSVKGRFTISRDNAKKTVYLQMNILKPVDTAVYYCAAGGQARHDYWGQGTQVTVSS” as the sequence, how does the “polyreactivity (PSR sort gate)” value read?
Answer: low polyreactivity

Question: Which “polyreactivity (PSR sort gate)” value does the source give for “QVQLVESGGGLVQAGGSLRLSCAASGRIFSRYAMGWYRQAPGKERELVAAISRNGGSTYYADSVKGRFTISRDNAKNTVYLQMNSLKPEDTAVYYCNARGNQAVNGYEYWGQGTQVTVSS” here?
Answer: high polyreactivity

Question: For “QVQLVESGGRLVQAGGSLRLSCAASGSTFGWNAMGWYRQAPGKETELVAAISRSGGRTYYADSVKGRFTISRDNANNTVYLQMISLKPEVTAVYYCAADRSTTGGLRGYWGQGTQVTVSS”, which “polyreactivity (PSR sort gate)” value is on record?
Answer: high polyreactivity

Question: With “QVQLVESGRGLVHAGGSIRLSCAASGRIFGLYAIGWYRQAPGKERELVASINSRGGSTNYAVSVKGRFTISRDNAMNTVYLQMNSLKPEDTAVYYCNARIVYAYQRYYWGQGTHVTVSS” as the sequence, how does the “polyreactivity (PSR sort gate)” value read?
Answer: high polyreactivity

Question: Which “polyreactivity (PSR sort gate)” value does the source give for “QVQLVESAGGLVQAAGSLRLSCDASGFTTYYNAMGWYRQAPGKERELVAAISSSGGSTNYADSVKGRFTISRDNAKNTVYLQMNSLKPEDTAVYYCAARLYGWYYGGYTRYDYWGQGTQVTVSS” here?
Answer: high polyreactivity

Question: Which “polyreactivity (PSR sort gate)” value does the source give for “QVQLVESGGGLVQAGGSLRLSCAASGSTFRGYALGWYRQAPGKERELVATISGSDGTTYYADSVKGRFTISRDNAKNTVYLQMNSLKPEDTAVYYCAAGETFEMYYWGQGTQVTVSS” here?
Answer: low polyreactivity

Question: For “QVQLVESGGGLVQAGRSLRLLSAASGSSIYFNGMGWYRQAPGKERELVAAITSGGSTDYADSVKGRFTISRDNEKNSVYLLMYSLKPEDTAVYYCNVQNGDRQITGYDYWGLGTQVTVSS”, which “polyreactivity (PSR sort gate)” value is on record?
Answer: low polyreactivity

Question: With “QVQLVESGGGLVQAGGSLRLSCAASGITLQNNAMGWYRQAPGKERELVAAITGSGGSTYYADSVKGRFTISRDNAKNTVYLQMNSLKPEDTAVYYCATDGIFHLGVYTPYDYWGQGTQVTVSS” as the sequence, how does the “polyreactivity (PSR sort gate)” value read?
Answer: low polyreactivity

Question: For “QVQLVESGGGLVQAGGSLRLSCAASGRTFFHYAMGWYRQAPGKERELVAGISSGGRTKYADSVKGRFTISRDNAKNTVYLQMNSLKPEDTAVYYCAASYIVWLTRGAPRKRFDYWGQGTQVTVSS”, which “polyreactivity (PSR sort gate)” value is on record?
Answer: high polyreactivity

Question: For “QVQIVETGGVLVQAGGSLRLSFADAGLTIYIYAMGWYRQAPGKETELFPAISWIGDSTYYADSVKGLFTISRDNAKNTVYLQLNSLKPEDTAVYYCAADSWRYVAEGLWREYDYWGQGTQVTVSS”, which “polyreactivity (PSR sort gate)” value is on record?
Answer: low polyreactivity

Question: With “QVQLVESGVGLVQAGGSLRLSCAASGSIFGYYVMGWYRQAPGKERELVAAISGSDSSTYYADSVKGRFTISRDNAKNTVYLQMNRLKPEDTAVYYCNADQRYYPVEFDYWGQGTQVTVSS” as the sequence, how does the “polyreactivity (PSR sort gate)” value read?
Answer: low polyreactivity

Question: With “QVQLVESAGGLVQAGGSLRLSCDASGRIIRGNAMGWYRQAPGKEREMVAAINRSGGSTYYADSVKGRFTISRDNAKNTVYLQMKSLKQEDTAVYYCIAYPASRKTGWSSGYYYWGQGTQVTVSS” as the sequence, how does the “polyreactivity (PSR sort gate)” value read?
Answer: high polyreactivity

Question: With “QVQLVESGGGLVQAGGSLRLSCTASGRIFTRNAMGWYRQAPGKERELVASISRTGTSTYYADSVKGRFTISRDNEKNNVYLQMNSLKPEDTAVYYFNARRTSVRFDYWGQGTQVTVSS” as the sequence, how does the “polyreactivity (PSR sort gate)” value read?
Answer: high polyreactivity

Question: Which “polyreactivity (PSR sort gate)” value does the source give for “QVQLVESGGGLVQAGGSLRLSCAASGSIFYYYAMGWYRQAPGKERELVAAISGTGGSTYYADSVKGRFSISRDNAKNTVYLQMNSLKPEDTAVYYCAASFYIERHRYNYWGQGTQVTVSS” here?
Answer: high polyreactivity

Question: For “QVQLVESGGGLVQAGGSLRLSCAASGIIFTKYFMGWYRQAPGKERELVAAINTDGGSTRYADSVKGRFTISRDNAKNTVYLQMNSLKPEDTAVYYCAAVSSRRPGYEYYYWGQGTQVTVSS”, which “polyreactivity (PSR sort gate)” value is on record?
Answer: high polyreactivity

Question: Which “polyreactivity (PSR sort gate)” value does the source give for “QVQLVESGGGLVQAGGSLRLSCAASGRIFHGYAMGWYRQAPGKERELVAAISSGGRTNYADSVKGRFTISRDNAKNTVYLQMNSLKPEDTAVYYCAAETQWYVRSRTLFYRYDYWGQGTQVTVSS” here?
Answer: high polyreactivity

Question: Which “polyreactivity (PSR sort gate)” value does the source give for “QVQLVESGGGLVQAGGSLRLSCAASGSISRRYVMGWYRQAPGKERELVAAISTSGGSTYYADSVKGRFTISRDNAKNTVYLQMNSLKPEDTAVYYCAADLPVQGGFDYWGQGTQVTVSS” here?
Answer: low polyreactivity

Question: Which “polyreactivity (PSR sort gate)” value does the source give for “QVQLVESGGGLVQAGGRLRLSCAASGSIFDRNAMGLYRQAPGKESELVATITWYGVSTYYADSVKGRFTISRDNAKNTVYLQMNSLKPEDTAVYYCNADYSYRHWYDPGHYGEAMGYWGQGTQVTVSS” here?
Answer: low polyreactivity

Question: With “QVQLVESGGGLVQAGGSLRLSCAASGRIFGDYGMGWYRQAPGNERELVAAITDRGGTTYYADSVKGRFTISRDNAKNTVYLQMNSLKPEDTAVYYCNARQSDIFDYDYWGQGTQVTVSS” as the sequence, how does the “polyreactivity (PSR sort gate)” value read?
Answer: low polyreactivity

Question: For “QVQLVESCGGLVQAGGSLRLSCAASGYTFRYYAMGWYRQAPGKERELVARITGRAGSTYYADSVKGRFTISRDNAKNTVYLQMNSLKPEDTAVYYCAASIREGFYWGHGTQVTVSS”, which “polyreactivity (PSR sort gate)” value is on record?
Answer: high polyreactivity

Question: With “QVQLVESGGGLVQAGGSLRLSCAASGSIFAVNAMGWYRQAPGKERELVAAIDWSDGITYYADSVKGRFTISRDNAKNTVYLQMNSLKPEDTAVYYCAADATAYGWYVEQFSFYDNDYWGQGTQVTVSS” as the sequence, how does the “polyreactivity (PSR sort gate)” value read?
Answer: high polyreactivity

Question: With “QVQLVESGGGLVQAGGSLRLSCAASGRTFGQYAMGWSRQAPGKERELVAAISARGASTYYADSVKGRFTISRDTAKNTVYLQMNSLKPEDTAVYYCNKYGRTSSTPLFYYWGQGTQVTVSS” as the sequence, how does the “polyreactivity (PSR sort gate)” value read?
Answer: high polyreactivity

Question: Which “polyreactivity (PSR sort gate)” value does the source give for “QVQRVESGGGLVQAGGRLRLSCAASGFIFSYNAMGWYRQAPGKERELVAAISWSGVSTYYADSVMGRFTISRDNAKNTVYLQMNSLKPEDTAVYYCSAVRLRYATPVQFNPYIFGYWGQGTQVTVSS” here?
Answer: high polyreactivity

Question: Which “polyreactivity (PSR sort gate)” value does the source give for “QVQLVASGGGLVQAGGSLRLSCAASGSTFDIYAMGWYRQAPGKERELVAAISVSDVYTYYADSVKGRFTISRDNAKNTVYLQMNSLKPEDTAVYYCAAETPTHDEWGQGTQVTVSS” here?
Answer: high polyreactivity

Question: With “QVQLVESGGGLVQAGGSLRLSCAASGSTFFYYAMGWYRQAPGKERELVAAISRNGGSTYYADSVKGRFTISRDNAKNTVYLQMNSLKPEDTAVYYCNAYNLAGRYFDYWGQGTQVTVSS” as the sequence, how does the “polyreactivity (PSR sort gate)” value read?
Answer: high polyreactivity

Question: With “QVQLVESGGGLVQAGGSLRLSCAASGFTFRQYALGWYRQAPGKERELVAAISSGGSTYYADSVKGRFTISRDNAKNTVYLQMNSLKPEDTAVYYCNAVARYYVAYDMYWGQGTQVTVSS” as the sequence, how does the “polyreactivity (PSR sort gate)” value read?
Answer: high polyreactivity

Question: With “QVHLVESGGGLVQAGGSLRLSCAASGRTFKGYAMGWYRQAPGKERELVASINWSDGNTYYADSVKGRFTISRDNAKNTVYLQMNSLKPEDTAVYYCNVRRGDRFVRHDYWGQGTQVTVSS” as the sequence, how does the “polyreactivity (PSR sort gate)” value read?
Answer: low polyreactivity

Question: For “QVQLVESGGGLVQAGGSLRLNCAASGSTFFGNAMGWYRQAPGKERELVAAISGSGGSTYYADSVKGRFTISRDNAKNTVYLQMNSLKPEDTAVYYCAKYYLTGLARYDYWGQGTQVTVSS”, which “polyreactivity (PSR sort gate)” value is on record?
Answer: high polyreactivity

Question: With “QVQLVESGGGLVQAGGSLRLSCAASGSTFRGYAMGWYRQAPGKERELVAAISSRGARTHYADSVKGRFTISRDNAKNTVYLQMNSLKPEDTAVYYCNKRQVFVSTGEYELDYWGQGTQVTVSS” as the sequence, how does the “polyreactivity (PSR sort gate)” value read?
Answer: low polyreactivity

Question: With “QVQLVESGGGLVQAGGSLRLSCAASGFTYIRYAMGWSRKATGKERQLVAAIRGTGTSTYFADSVKGRFTISRDNGKNTVYLQMNSLKPEETAVYYCNNVSGRSPYTRYDYWGQGTQVTVSS” as the sequence, how does the “polyreactivity (PSR sort gate)” value read?
Answer: low polyreactivity

Question: Which “polyreactivity (PSR sort gate)” value does the source give for “QVQLVESGGGLVQAGGSLRLSCAASGITFLYYTRGWYRPAPGKERELVASISRSGNTYYADSVKGRFTISRDNAKNTVYLQMNSLKPEDTAVYYCAAKRKSYYSYNFDYWGQGTQVTVSS” here?
Answer: high polyreactivity

Question: With “QVQLVESGGGLVQAGGSLRLSCAASGSTFDINAMGWYRQAPGKERELVAAITDSGGSTHYADSVKGRFTISRDNAKNTVSLQMNSLKPEDTAVYYCNADDYLVYAGSHYGYWGQGTQVTVSS” as the sequence, how does the “polyreactivity (PSR sort gate)” value read?
Answer: low polyreactivity

Question: With “QVQLVESGGGLDQAGGSLRLSCADSASTFYRYAKGWSRQAPGKEWELVAAITRTGGSTYADSVKGRFTISRDNAKNTVYLQMNSLKPEDTAVYFCAVQRYFVSSISPFYYWGQGTQVTVSS” as the sequence, how does the “polyreactivity (PSR sort gate)” value read?
Answer: low polyreactivity
